A word on the Kd: it is a measure of binding affinity in units of concentration. By koff is commonly meant the rate constant with which the complex falls apart. What is called kon is a measure of how fast the partners come together.

For 4 molecules, Kd, koff and kon results are on record in PMC4371549 (The Biochemical journal, 2010).

Assay in all cases: resonant mirror detection
Test [1] has as its target recombinant 4.1R^135 (135kDa isoform of protein 4.1R) (human, UniProt P11171 1-864).
The target of test [2] is full length recombinant human protein 4.1G (human, UniProt O43491 1-1005).
The target in test [3] is T1, complex of 4.1G and CaM (human | , UniProt O43491 1-1005; P0DP23 1-149).
Test [4] concerns the target T1, complex of 4.1G and CaM. The source holds these as a separate data set.

Like-named read-outs stand apart in the source and are kept apart here.

Sequence of recombinant 4.1R^135 (135kDa isoform of protein 4.1R) (P11171 whole entry, canonical isoform): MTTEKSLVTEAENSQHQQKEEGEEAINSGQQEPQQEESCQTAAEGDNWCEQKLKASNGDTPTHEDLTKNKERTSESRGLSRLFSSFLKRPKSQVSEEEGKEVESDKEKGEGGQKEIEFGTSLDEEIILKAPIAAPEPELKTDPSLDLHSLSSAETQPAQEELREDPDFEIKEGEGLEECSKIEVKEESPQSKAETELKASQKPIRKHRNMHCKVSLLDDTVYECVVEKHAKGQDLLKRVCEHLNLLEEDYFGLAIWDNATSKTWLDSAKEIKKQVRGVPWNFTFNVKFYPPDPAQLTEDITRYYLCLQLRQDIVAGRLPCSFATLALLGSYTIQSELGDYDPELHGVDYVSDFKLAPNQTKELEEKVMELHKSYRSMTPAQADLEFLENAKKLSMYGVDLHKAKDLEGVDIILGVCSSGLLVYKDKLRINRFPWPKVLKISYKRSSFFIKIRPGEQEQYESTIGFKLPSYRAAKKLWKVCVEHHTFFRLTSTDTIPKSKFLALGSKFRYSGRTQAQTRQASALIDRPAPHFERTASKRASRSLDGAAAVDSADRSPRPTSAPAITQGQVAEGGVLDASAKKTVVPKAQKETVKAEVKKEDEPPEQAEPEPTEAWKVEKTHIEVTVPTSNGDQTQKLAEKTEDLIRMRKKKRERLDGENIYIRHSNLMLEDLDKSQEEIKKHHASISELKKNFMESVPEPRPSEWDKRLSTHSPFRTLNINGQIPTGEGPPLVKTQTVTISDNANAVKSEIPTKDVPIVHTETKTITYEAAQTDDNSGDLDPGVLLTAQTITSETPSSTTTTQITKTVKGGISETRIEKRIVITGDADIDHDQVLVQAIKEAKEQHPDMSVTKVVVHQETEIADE
Sequence of full length recombinant human protein 4.1G (O43491 whole entry): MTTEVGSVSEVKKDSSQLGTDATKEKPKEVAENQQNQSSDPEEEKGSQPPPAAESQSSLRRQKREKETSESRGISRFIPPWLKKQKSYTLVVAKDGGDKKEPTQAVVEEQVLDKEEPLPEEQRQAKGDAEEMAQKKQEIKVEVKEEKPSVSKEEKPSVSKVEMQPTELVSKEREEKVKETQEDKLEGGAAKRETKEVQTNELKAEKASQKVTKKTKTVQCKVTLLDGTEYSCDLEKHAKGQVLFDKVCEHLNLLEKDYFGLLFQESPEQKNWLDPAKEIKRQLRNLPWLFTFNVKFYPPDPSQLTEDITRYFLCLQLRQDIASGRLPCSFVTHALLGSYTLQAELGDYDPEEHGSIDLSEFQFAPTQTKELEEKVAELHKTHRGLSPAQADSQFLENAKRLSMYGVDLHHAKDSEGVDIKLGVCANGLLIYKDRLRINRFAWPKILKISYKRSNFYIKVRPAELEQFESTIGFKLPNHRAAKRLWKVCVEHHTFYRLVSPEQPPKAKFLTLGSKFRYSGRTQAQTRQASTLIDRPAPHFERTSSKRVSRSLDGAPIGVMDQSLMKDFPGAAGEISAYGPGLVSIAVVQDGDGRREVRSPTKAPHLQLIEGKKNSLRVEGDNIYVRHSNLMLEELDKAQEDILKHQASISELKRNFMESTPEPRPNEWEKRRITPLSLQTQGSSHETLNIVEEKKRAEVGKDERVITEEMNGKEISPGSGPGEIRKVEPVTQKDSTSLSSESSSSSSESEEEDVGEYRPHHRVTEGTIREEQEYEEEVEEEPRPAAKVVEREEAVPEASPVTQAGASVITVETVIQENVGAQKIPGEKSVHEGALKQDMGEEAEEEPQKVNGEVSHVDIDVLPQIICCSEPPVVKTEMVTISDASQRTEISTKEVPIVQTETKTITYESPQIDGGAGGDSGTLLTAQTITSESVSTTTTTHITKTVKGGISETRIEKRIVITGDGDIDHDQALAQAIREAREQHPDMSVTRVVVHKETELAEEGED

B1: p55 (natural protein, UniProt Q00013 1-466, looked up)
chain: MTLKASEGESGGSMHTALSDLYLEHLLQKRSRPEAVSHPLNTVTEDMYTNGSPAPGSPAQVKGQEVRKVRLIQFEKVTEEPMGITLKLNEKQSCTVARILHGGMIHRQGSLHVGDEILEINGTNVTNHSVDQLQKAMKETKGMISLKVIPNQQSRLPALQMFMRAQFDYDPKKDNLIPCKEAGLKFATGDIIQIINKDDSNWWQGRVEGSSKESAGLIPSPELQEWRVASMAQSAPSEAPSCSPFGKKKKYKDKYLAKHSSIFDQLDVVSYEEVVRLPAFKRKTLVLIGASGVGRSHIKNALLSQNPEKFVYPVPYTTRPPRKSEEDGKEYHFISTEEMTRNISANEFLEFGSYQGNMFGTKFETVHQIHKQNKIAILDIEPQTLKIVRTAELSPFIVFIAPTDQGTQTEALQQLQKDSEAIRSQYAHYFDLSLVNNGVDETLKKLQEAFDQACSSPQWVPVSWVY
With B1, in test [1], the equilibrium dissociation constant (Kd) stood at 248 nM, the koff worked out at 0.0047 s⁻¹ and the on-rate (kon) is 19000 M⁻¹ s⁻¹. Also, in test [2], the Kd came to 181 nM, the koff was found to be 0.0085 s⁻¹ and the kon was 47000 M⁻¹ s⁻¹.

B2: cytoplasmic domain of glycophorin C (domain or fragment, UniProt P04921 82-128, looked up)
chain: RYMYRHKGTYHTNEAKGTEFAESADAALQGDPALQDAGDSSRKEYFI
In the case of B2, in the test with complex of 4.1G and CaM [3], binding was put at a Kd of 1250 nM, the off-rate constant (koff) came to 0.015 s⁻¹ and the on-rate constant (kon) was 12000 M⁻¹ s⁻¹. In the test with complex of 4.1G and CaM [4], the equilibrium dissociation constant (Kd) came out at 155 nM, the off-rate (koff) was 0.013 s⁻¹ and the kon amounted to 84000 M⁻¹ s⁻¹.

B3: cytoplasmic domain of band 3 (domain or fragment, UniProt P02730 1-403, looked up)
chain: MEELQDDYEDMMEENLEQEEYEDPDIPESQMEEPAAHDTEATATDYHTTSHPGTHKVYVELQELVMDEKNQELRWMEAARWVQLEENLGENGAWGRPHLSHLTFWSLLELRRVFTKGTVLLDLQETSLAGVANQLLDRFIFEDQIRPQDREELLRALLLKHSHAGELEALGGVKPAVLTRSGDPSQPLLPQHSSLETQLFCEQGDGGTEGHSPSGILEKIPPDSEATLVLVGRADFLEQPVLGFVRLQEAAELEAVELPVPIRFLFVLLGPEAPHIDYTQLGRAAATLMSERVFRIDAYMAQSRGELLHSLEGFLDCSLVLPPTDAPSEQALLSLVPVQRELLRRRYQSSPAKPDSSFYKGLDLNGGPDDPLQQTGQLFGGLVRDIRRRYPYYLSDITDAFSP
B3: in the test with complex of 4.1G and CaM [4], the Kd was 127 nM, the off-rate constant (koff) turned out to be 0.064 s⁻¹ and the kon was found to be 510000 M⁻¹ s⁻¹. In addition, in test [1], the dissociation constant Kd came to 23 nM, the koff amounted to 0.0071 s⁻¹ and the kon came out at 310000 M⁻¹ s⁻¹. For the same molecule, in test [2], the Kd came out at 185 nM, the koff worked out at 0.014 s⁻¹ and the on-rate constant (kon) worked out at 80000 M⁻¹ s⁻¹.

B4: cytoplasmic domain of CD44 (domain or fragment, UniProt P16070 671-742, looked up)
chain: NSRRRCGQKKKLVINSGNGAVEDRKPSGLNGEASKSQEMVHLVNKESSETPDQFMTADETRNLQNVDMKIGV
In the test with complex of 4.1G and CaM [4], B4 had a Kd of 197 nM, a koff of 0.014 s⁻¹ and an association rate constant (kon) of 71000 M⁻¹ s⁻¹. For the same molecule, in test [1], the dissociation constant Kd was 329 nM, the off-rate constant (koff) is 0.015 s⁻¹ and the on-rate (kon) amounted to 42000 M⁻¹ s⁻¹. Besides, in test [2], the Kd is 178 nM, the koff worked out at 0.0066 s⁻¹ and the kon is 38000 M⁻¹ s⁻¹.
